In US20140302028A1:

Columns and labels:
[1] = target: recombinant human FcRn (Sino Biological Inc.) (human) (UniProt P55899); experiment: SPR (Biacore T100), human FcRn immobilised, pH 6, two-state model
[2] = target: recombinant mouse FcRn (R&D Systems) (mouse) (UniProt Q61559); experiment: SPR (Biacore T100), mouse FcRn immobilised, pH 6, two-state model
[3] = target: recombinant human FcRn (Sino Biological Inc.) (human) (UniProt P55899); experiment: SPR (Biacore T100), human FcRn immobilised, pH 6, two-state model, complex formation
[4] = target: recombinant mouse FcRn (R&D Systems) (mouse) (UniProt Q61559); experiment: SPR (Biacore T100), mouse FcRn immobilised, pH 6, two-state model, complex formation
[5] = target: recombinant human FcRn (Sino Biological Inc.) (human) (UniProt P55899); experiment: SPR (Biacore T100), human FcRn immobilised, pH 6, two-state model, complex stabilization
[6] = target: recombinant mouse FcRn (R&D Systems) (mouse) (UniProt Q61559); experiment: SPR (Biacore T100), mouse FcRn immobilised, pH 6, two-state model, complex stabilization

- Kd [1]: 34 nM
- Kd [2]: 6.66 nM
- koff [3]: 0.313 s⁻¹
- kon [3]: 5.99e+06 M⁻¹ s⁻¹
- koff [4]: 0.0153 s⁻¹
- kon [4]: 159000 M⁻¹ s⁻¹
- kd (Complex Stabilization) [5]: 0.00155 s⁻¹
- kd (Complex Stabilization) [6]: 0.000107 s⁻¹
Substance: HUMIRA ® (antibody)
